Legend:
119RC4_20_Axle (D8-C4) = target: T1, 119RC4_20_Axle (D8-C4); test: stoichiometric mixing of separately purified axle and ring, then SEC, SAXS and EM
T1 construct: D8 homo-16-meric axle; two C4 rings assemble around one axle; also called D8 axle; D8A_1615
T1 chain: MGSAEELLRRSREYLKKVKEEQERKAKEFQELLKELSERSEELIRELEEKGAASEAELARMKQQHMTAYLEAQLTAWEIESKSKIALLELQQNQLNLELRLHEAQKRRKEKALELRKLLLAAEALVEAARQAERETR

[1] = target: T2, C8D8_6_49_119RC4_20_Axle (C8-C4); test: SEC, SAXS, biolayer interferometry binding kinetics and negative stain EM
T2 construct: C8 homooctameric axle, the circular permutation version of the D8 axle; For biolayer interferometry it was Avi-tagged and biotinylated; also called C8 axle
T2 chain: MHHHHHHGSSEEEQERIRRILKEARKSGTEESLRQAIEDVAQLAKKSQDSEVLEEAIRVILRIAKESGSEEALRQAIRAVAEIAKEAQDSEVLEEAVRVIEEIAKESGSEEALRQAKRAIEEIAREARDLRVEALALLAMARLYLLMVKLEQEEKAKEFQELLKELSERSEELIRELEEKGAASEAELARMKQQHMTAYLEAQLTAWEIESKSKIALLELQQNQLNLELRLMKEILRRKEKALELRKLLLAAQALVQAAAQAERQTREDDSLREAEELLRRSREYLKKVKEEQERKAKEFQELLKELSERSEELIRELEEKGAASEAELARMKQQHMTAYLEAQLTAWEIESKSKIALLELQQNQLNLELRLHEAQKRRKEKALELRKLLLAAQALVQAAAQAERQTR
Experimental: (§1) FIG. 13. Biolayer interferometry assays measuring in vitro assembly of ring and axle parts into a full rotary system. For each 6 designs, the equilibrium binding curves from biolayer interferometry binding assays is shown on the left and the corresponding Biolayer interferometry kinetic binding traces shown on the right. Biotinylated axles were immobilized on the tip and the binding in a solution of fre rings was measured. For both D3-C5 and D3-C3, a fresh ring solution was prepared by buffer exchange from citrate buffer to TBS with reducing agent, and immediately used for binding assays.
(§2) Protein samples were purified by SEC in 25 mM Tris pH 8.0, 25 mM NaCl and 1% glycerol; elution fractions corresponding to the protein were further concentrated using 3K protein concentrators (Millipore Sigma) and the flow-through was used as blank for buffer subtraction. SAXS Scattering measurements were performed at the SIBYLS 12.3.1 beamline at the Advanced Light Source. […] Collected data were processed using the SAXS FrameSlice™ online server and analysed using the ScÅtter software package(23). […]

C5C3_3250_Axle (C5-C3) = target: T3, C5C3_3250_Axle (C5-C3); test: as above
T3 construct: C5 homopentameric axle; For biolayer interferometry it was Avi-tagged and biotinylated; also called C5 axle
T3 chain: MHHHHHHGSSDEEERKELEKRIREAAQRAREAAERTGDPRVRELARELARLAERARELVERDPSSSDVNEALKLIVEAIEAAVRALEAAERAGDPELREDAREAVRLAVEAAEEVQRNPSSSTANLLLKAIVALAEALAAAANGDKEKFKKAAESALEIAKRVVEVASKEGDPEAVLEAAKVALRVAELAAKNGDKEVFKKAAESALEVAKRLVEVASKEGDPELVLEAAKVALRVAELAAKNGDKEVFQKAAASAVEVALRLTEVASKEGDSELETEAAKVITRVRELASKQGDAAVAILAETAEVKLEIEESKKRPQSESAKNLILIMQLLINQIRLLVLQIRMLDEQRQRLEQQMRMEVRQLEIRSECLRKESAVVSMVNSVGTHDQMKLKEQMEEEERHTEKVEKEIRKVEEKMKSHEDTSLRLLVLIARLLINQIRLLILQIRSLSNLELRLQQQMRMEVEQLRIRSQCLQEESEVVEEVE
Experimental: as §1, §2

C3D3_AR113_Axle (D3-C3) = target: T4, C3D3_AR113_Axle (D3-C3); test: negative stain EM after pH-controlled, oxidoreductive assembly of axle and ring
T4 construct: De novo designed D3 homohexameric axle, a surface redesign of 1552_1na0C3_int2_11; For biolayer interferometry the axle was Avi-tagged and enzymatically biotinylated; also called D3 axle; designed D3 axle
T4 chain: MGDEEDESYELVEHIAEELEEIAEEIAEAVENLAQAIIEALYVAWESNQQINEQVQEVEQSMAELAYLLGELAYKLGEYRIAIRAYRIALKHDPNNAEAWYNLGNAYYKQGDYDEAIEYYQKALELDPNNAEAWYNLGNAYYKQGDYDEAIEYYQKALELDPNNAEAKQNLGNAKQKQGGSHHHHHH

54.7_112_Axle = target: T5, 54.7_112_Axle; test: biolayer interferometry, biotinylated axle on streptavidin tips, ring in solution
T5 construct: Axle of a C3-C3 design (C3 homotrimer); It carries no His tag in the bicistronic pull-down; For biolayer interferometry it was Avi-tagged and biotinylated; also called C3-C3 design 54.7.112
T5 chain: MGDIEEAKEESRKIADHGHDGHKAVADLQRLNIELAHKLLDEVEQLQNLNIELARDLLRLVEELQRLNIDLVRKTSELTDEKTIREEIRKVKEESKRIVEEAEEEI
Experimental: as §1
Biolayer interferometry experiments were performed on an OctetRED96 BLI system (ForteBio, Menlo Park, CA). Enzymatic protein biotinylation was performed on SEC purified Avi-tagged proteins prior to the assay. The BirA500 (Avidity, LLC) biotinylation kit was used to biotinylate protein from the IMAC elution according to the manufacturer protocol. Reactions were incubated at 4C overnight and purified using size exclusion chromatography on a Superdex™ 6 10/300 Increase GL (GE Healthcare) in TBS buffer (25 mM Tris pH 8.0, 25 mM NaCl). Streptavidin coated biosensors were equilibrated for 10 minutes in Octet buffer (10 mM HEPES pH 7.4, 25 mM NaCl, 3 mM EDTA, 0.05% Surfactant P20) supplemented with 1 mg/ml Bovine Serum Albumin (SigmaAldrich). […]

B1: 119RC4_20_Ring (D8-C4) (designed binder)
chain: MGCDAIQAAAALGEAGISSNEILELLAAAAELGLDPDAIQAAAQLGEAGISSEEILELLRAAHELGLDPDAIAAAADLGQAGISSEEILELLRAAHELGLDPDAIQAAAALGEAGISSEEILELLRAAHELGLDPDAIQAAAQLGEAGISSEEILELLRAAHELGLDPDCIAAAADLGQAGISSSEITALLLAAAAIELAKRADDKDVREIVRDALELASRSTNDEVIRLALEAAVLAARSTDSDVLEIVKDALELAKQSTNEEVIKLALKAAVLAAKSTDEEVLEEVKEALRRAKESTDEEEIKEELRKAVEEAEGSHHHHHH
notes: C4 ring of four subunits, each fused to DHR20; two rings sit on each D8 axle; also called C4 ring
B1: binds (119RC4_20_Axle (D8-C4)).

B2: C8D8_6_49_119RC4_20_Ring (C8-C4) (designed binder)
chain: MGCDAIQAAAALGEAGISSNEILELLAAAAELGLDPDAIQAAAQLGEAGISSEEILELLRAAHELGLDPDAIAAAADLGQAGISSEEILELLRAAHELGLDPDAIQAAAALGEAGISSEEILELLRAAHELGLDPDAIQAAAQLGEAGISSEEILELLRAAHELGLDPDCIAAAADLGQAGISSSEITALLLAAAAIELAKRADDKDVREIVRDALELASRSTNDEVIRLALEAAVLAARSTDSDVLEIVKDALELAKQSTNEEVIKLALKAAVLAAKSTDEEVLEEVKEALRRAKESTDEEEIKEELRKAVEEAEGSHHHHHH
notes: C4 ring of four subunits; also called C4 ring
B2: binds [1].

B3: C5C3_3250_Ring (C5-C3) (designed binder)
chain: MGNRSLHANKLKTHLENLREHLKRLDEHAKQLRDILSEHPHDERVKDSIDLLEESVRIVKISIKIFEASVRALLWAINKEAEELAKSPDPADLERAVRLAAAVVRADPGSNLSKKALEIILRAAAELAKLPDPKALAAAAEAASRVQREQPGSNLAKAAQEIMRQASRAAEEAARRAKETLEKAEKDGDPRTALQAVMTVVEVAKALNIIATMAGSEEAQERAARVAAEAAELALRVFELAEKQGDPEVAHNARKLIEIVLHILLQILTQILETATKIIREANELLEKHRRSHHHDPKLVETHVELVKRHERLVRQHLKIALMHALAVLELAFPDAEAAKLASKAAKEAEELCKQSTDERLCDLLAELAALLIELAARYPDSEAAKLALKAALEAIELCKQSTDEELCEELVKLAQKLIELAKRYPDSEEAKRALKEAKELIEQCKESTDEDECRELVKRAEELIREAKEGSHHHHHH
notes: C3 homotrimeric ring; also called C3 ring
B3: binds (C5C3_3250_Axle (C5-C3)).

B4: C3D3_AR113_Ring (D3-C3) (designed binder)
chain: MGQRSGHARQLKRHLHRLRRHLERLDKHAKHLRQILSERPQDERVKDSIDLLEESVRIVKISIKIFEASVRALLWAINKEAEELAKSPDPHDLHRAVRLARAVVQADPGSNLSKKALEIILRAAAELAKLPDPNALAAAARAASQVQREQPGSNLAKAAQEIMRQASRAAEEAARRAKETLEKAEKRGDPKTALQAVRTVVKVAAALNQIATMAGSEEAQERAARVAAEAAELALRVFELAEKQGDPHVARRARKLIQTVLQILLRILTQILETATKIIEEANKLLRKHRRSSRKDPKLVETHVELVKRHERLVRQHLKIALMHALAVLELAFPDAEAAKLASKAAKEAEELCKQSTDERLCDLLAELAALLIELAARYPDSEAAKLALKAALEAIELCKQSTDEELCEELVKLAQKLIELAKRYPDSEEAKRALKEAKELIEQCKESTDEDECRELVKRAEELIREAKEGSHHHHHH
notes: De novo designed C3 homotrimeric ring with disulfides and histidine networks at the subunit interfaces; also called C3 ring; ring of the D3-C3 rotor
B4: binds (C3D3_AR113_Axle (D3-C3)).

B5: 54.7_112_Ring (designed binder)
chain: MGVEELLLLARAAHHSGTTVEEAYKLALKLGISVKELLLLARAAHNSGTTVEEAYKLALKLGISVEELLLLAKAAHYSGTTVEEAYKLALKLGISVRELLLLAKAAHFSGTTVEEAYKLALKLGISVEELLLLARAAHHSGTTVEEAYKLALKLGISVKELLLLARAAHNSGTTVEEAYKLALKLGISVEELLLLAKAAHYSGTTVEEAYKLALKLGISVRELLLLAKAAHFSGTTVEEAYKLALKLGISVEELLLLARAAHHSGTTVEEAYKLALKLGISVKELLLLARAAHNSGTTVEEAYKLALKLGISVEELLLLAKAAHYSGTTVEEAYKLALKLGISVRELLLLAKAAHFSGTTVEEAYKLALKLGISGSHHHHHH
notes: also called C3-C3 design 54.7.112
B5: binds (54.7_112_Axle).

— patent US20240010687A1 (University of Washington, published 2024)
